The values that follow are results of earlier work, collected in patent US9394339B2, “Stabilized formulations of peptides and proteins protecting against non-enzymatic degradation” (Lyotropic Therapeutics, Inc., priority 2007, dated 2016).

Where two headings read alike, the source gives them in different places.

Setting [1] is: aqueous solution, pH 7.4, 37° C., Tris-HCl buffer.

B1: Procathepsin K (1BY8): human protein (protein, UniProt P43235 16-329, looked up)
pro-form: LYPEEILDTHWELWKKTHRKQYNNKVDEISRRLIWEKNLKYISIHNLEASLGVHTYELAMNHLGDMTSEEVVQKMTGLKVPLSHSRSNDTLYIPEWEGRAPDSVDYRKKGYVTPVKNQGQCGSCWAFSSVGALEGQLKKKTGKLLNLSPQNLVDCVSENDGCGGGYMTNAFQYVQKNRGIDSEDAYPYVGQEESCMYNPTGKAAKCRGYREIPEGNEKALKRAVARVGPVSVAIDASLTSFQFYSKGVYYDESCNSDNLNHAVLAVGYGIQKGNKHWIIKNSWGENWGNKGYILMARNKNNACGIANLASFPKM
modifications: pro-form
For B1, under setting [1], the “T1/10 (time to 10% degradation by deamidation)” value is on record as 4.3 days.

B2: Medium chain acyl-coa dehydrogenase (1EGE): human protein (protein, UniProt P11310 26-421, looked up)
Medium-chain specific …: KANRQREPGLGFSFEFTEQQKEFQATARKFAREEIIPVAAEYDKTGEYPVPLIRRAWELGLMNTHIPENCGGLGLGTFDACLISEELAYGCTGVQTAIEGNSLGQMPIIIAGNDQQKKKYLGRMTEEPLMCAYCVTEPGAGSDVAGIKTKAEKKGDEYIINGQKMWITNGGKANWYFLLARSDPDPKAPANKAFTGFIVEADTPGIQIGRKELNMGQRCSDTRGIVFEDVKVPKENVLIGDGAGFKVAMGAFDKTRPVVAAGAVGLAQRALDEATKYALERKTFGKLLVEHQAISFMLAEMAMKVELARMSYQRAAWEVDSGRRNTYYASIAKAFAGDIANQLATDAVQILGGNGFNTEYPVEKLMRDAKIYQIYEGTSQIQRLIVAREHIDKYKN
As to B2, the “T1/10 (time to 10% degradation by deamidation)” value under setting [1] was 5.5 days.

B3: Procathepsin L (1CS8): human protein (protein, UniProt P07711 18-333, looked up)
pro-form: TLTFDHSLEAQWTKWKAMHNRLYGMNEEGWRRAVWEKNMKMIELHNQEYREGKHSFTMAMNAFGDMTSEEFRQVMNGFQNRKPRKGKVFQEPLFYEAPRSVDWREKGYVTPVKNQGQCGSCWAFSATGALEGQMFRKTGRLISLSEQNLVDCSGPQGNEGCNGGLMDYAFQYVQDNGGLDSEESYPYEATEESCKYNPKYSVANDTGFVDIPKQEKALMKAVATVGPISVAIDAGHESFLFYKEGIYFEPDCSSEDMDHGVLVVGYGFESTESDNNKYWLVKNSWGEEWGMGGYVKMAKDRRNHCGIASAASYPTV
modifications: pro-form
Turning to B3, the “T1/10 (time to 10% degradation by deamidation)” value under setting [1] is given as 7.3 days.

B4: Ribonuclease A (1AFK): human protein (protein, UniProt P61823 27-150, looked up)
Ribonuclease pancreatic: KETAAAKFERQHMDSSTSAASSSNYCNQMMKSRNLTKDRCKPVNTFVHESLADVQAVCSQKNVACKNGQTNCYQSYSTMSITDCRETGSSKYPNCAYKTTQANKHIIVACEGNPYVPVHFDASV
B4: the “T1/10 (time to 10% degradation by deamidation)” value under setting [1] is recorded as 10 days.

B5: Fructose-1,6-bisphosphatase (1FTA): human protein (protein, UniProt P09467 2-338, looked up)
Fructose-1,6-bisphosphatase 1: ADQAPFDTDVNTLTRFVMEEGRKARGTGELTQLLNSLCTAVKAISSAVRKAGIAHLYGIAGSTNVTGDQVKKLDVLSNDLVMNMLKSSFATCVLVSEEDKHAIIVEPEKRGKYVVCFDPLDGSSNIDCLVSVGTIFGIYRKKSTDEPSEKDALQPGRNLVAAGYALYGSATMLVLAMDCGVNCFMLDPAIGEFILVDKDVKIKKKGKIYSLNEGYARDFDPAVTEYIQRKKFPPDNSAPYGARYVGSMVADVHRTLVYGGIFLYPANKKSPNGKLRLLYECNPMAYVMEKAGGMATTGKEAVLDVIPTDIHQRAPVILGSPDDVLEFLKVYEKHSAQ
In the case of B5, the “T1/2 (half-life, deamidation)” value (buffer, pH 7.4) is 59 days. Further, the “T1/10 (time to 10% degradation by deamidation)” value (pH 7.4) is reported as 9.0 days.

B6: Transaldolase (1F05): human protein (protein, UniProt P37837 1-337, looked up)
Transaldolase: MSSSPVKRQRMESALDQLKQFTTVVADTGDFHAIDEYKPQDATTNPSLILAAAQMPAYQELVEEAIAYGRKLGGSQEDQIKNAIDKLFVLFGAEILKKIPGRVSTEVDARLSFDKDAMVARARRLIELYKEAGISKDRILIKLSSTWEGIQAGKELEEQHGIHCNMTLLFSFAQAVACAEAGVTLISPFVGRILDWHVANTDKKSYEPLEDPGVKSVTKIYNYYKKFSYKTIVMGASFRNTGEIKALAGCDFLTISPKLLGELLQDNAKLVPVLSAKAAQASDLEKIHLDEKSFRWLHNEDQMAVEKLSDGIRKFAADAVKLERMLTERMFNAENGK
With B6, under setting [1], the “T1/10 (time to 10% degradation by deamidation)” value was 0.21 days.
